First the molecules themselves.
T1: His-SUMO-FtsZ (Corynebacterium glutamicum, UniProt P94337 1-442)
T1 construct: FtsZ, tubulin-like cell division protein, Corynebacterium glutamicum; Captured on Ni-NTA biosensors; also called 6xHis-SUMO-FtsZ; immobilized SUMO-FtsZ; source: E. coli BL21 (DE3), purified (Ni-NTA, SEC); not shown: His6, N-terminal, kept; SUMO, N-terminal, kept
T1 sequence (looked up): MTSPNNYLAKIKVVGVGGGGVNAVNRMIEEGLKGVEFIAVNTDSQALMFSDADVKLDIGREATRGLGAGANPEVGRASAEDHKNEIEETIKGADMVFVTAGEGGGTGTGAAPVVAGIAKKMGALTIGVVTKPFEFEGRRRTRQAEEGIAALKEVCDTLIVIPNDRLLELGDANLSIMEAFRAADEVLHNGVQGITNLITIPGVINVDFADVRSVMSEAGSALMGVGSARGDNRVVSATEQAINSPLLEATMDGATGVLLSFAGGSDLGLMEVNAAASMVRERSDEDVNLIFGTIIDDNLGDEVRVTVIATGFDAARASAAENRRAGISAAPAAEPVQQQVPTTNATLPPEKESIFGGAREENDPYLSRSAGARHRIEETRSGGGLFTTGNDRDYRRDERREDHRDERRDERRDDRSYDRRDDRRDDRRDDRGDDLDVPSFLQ

B1: GlpR (Glp receptor, Cgl0885), C-terminal His tag (receptor, Corynebacterium glutamicum ATCC13032, UniProt Q8NS01 1-340, looked up)
chain: MLHVSGILVIGLIVVVWLVVLAPLLLRGQKPIAKAGEAFDDTRVISEGGSNIPSPRRPGLSSAQLDDEEDTDDVDDDYEIVDSPSIFRPRKEEPVEEDLDTDVELEEDIEVSLETDDYVEPAPVVEVSQEWNVEDHYELDDSYDTPLDHLHPAARARAYEDFQEHQPEQQPEVEEFDADDELTEEDVAFAQRRRGRGYYDPEADREFAASQYVRRQRTLLGLAATVVISVILGFVFGGWVWGLPAVALAATALYLMALRSQVREENALRARRIRRLRRSRMGVRNSEDLPSRLRRPGAVVLELDDESPDFEGLPTVAMPEEPYYEEPRRNIRHLGQRRVS
notes: GlpR, integral membrane protein with 3 predicted transmembrane helices, Corynebacterium glutamicum ATCC13032, locus Cgl0885; In 0.05% DDM; also called C-terminal His-tagged GlpR; immobilized GlpR; source: E. coli BL21 (DE3), purified from membranes in DDM (Ni-NTA, SEC); not shown: His6, C-terminal, kept
B2: Glp (gephyrin-like protein, Cgl0883), untagged (natural protein, Corynebacterium glutamicum ATCC13032, UniProt Q8NS03 1-419, looked up)
chain: MRSVEQQLSIVTEAAVAPEPVRIAIAEALGLMCAEEVQASRALPGFAQAAIDGYAVRAVDVGGEKSLSQQLPVAPPEKSLPVVGEVAAGSQQPLRLQPKQAVMVHTGAPLPMLADAVLPMAWSDRGRKRVTAQRPVRSGEFVRKEGDDIQPGDIAVSAGAVLGPAQIGLLAAVGRSKVLVYPRPRMSVISVGAELVDIDRQPGLGQVYDVNSYSLAAAGREAGADVYRYGIAAGEPRRIKEIIESQMLRSEIIVITGAVGGAGSAGVRQVLNELGDIDTERVAMHPGSVQGFGLLGENKIPCFLLPSNPVASLVIFETFVRPVVRMSLGKSNAARRVVRARALNHVVSVAGRKGFIRSRLMRDAETQDYLVEALGGATGAPSHLLAGLSEANGMIRIPEDVTEIRPGDVVDVIFLAQGR
notes: Glp (gephyrin-like protein, annotated molybdopterin molybdotransferase MoeA), Corynebacterium glutamicum ATCC13032, locus Cgl0883; Homodimer in the crystal structures; Called 'untagged Glp' in the BLI on GlpR; also called gephyrin-like repurposed molybdotransferase; MoeA paralogue; source: E. coli BL21 (DE3), purified (Ni-NTA, SUMO protease, SEC); not shown: His6, N-terminal, cleaved; SUMO, …
B3: FtsZCTD peptide (peptide)
peptide: DDLDVPSFLQ
notes: C-terminal 10 residues of FtsZ, Corynebacterium glutamicum; also called 10-residue peptide FtsZCTD; C-terminal domain of FtsZ; source: synthetic peptide, bought: Genosphere

Data set [1] addresses Biotinylated His-GlpR (Corynebacterium glutamicum ATCC13032). Kind of data set: BLI; biotinylated GlpR immobilised on streptavidin biosensors; Wag31 150–2.34 μM in buffer A (20 mM HEPES pH 8.5, 150 mM NaCl, DDM 0.05%); 25 °C; apparent Kd from steady-state fit, one-site model. Background: BLI is a label-free optical method that tracks binding on a fibre tip over time.
Data set [2] has the same target. Briefly: BLI; biotinylated GlpR immobilised on streptavidin biosensors; Wag31 1-61 (DivIVA) 200–3.15 μM in buffer B (25 mM HEPES pH 7.5, 150 mM NaCl, 10% glycerol, 0.05% DDM, 1 mg/ml BSA); 25 °C; apparent Kd from steady-state fit, one-site model.
The target in data set [3] is B2. Briefly: BLI; C-terminal His-tagged GlpR immobilised on Ni-NTA biosensors; untagged Glp variants (Glp 100–1.56 nM) in 25 mM HEPES pH 7.5, 150 mM NaCl, 10% glycerol, 0.05% DDM, 1 mg/ml BSA; 25 °C; apparent Kd from steady-state fit. Particulars: both partners purified.
Another data set concerns the target T1, His-SUMO-FtsZ. Briefly: BLI; His-SUMO-FtsZ immobilised on Ni-NTA biosensors; Glp 80–1.25 μM in 2-fold dilutions; polymerization buffer (25 mM Pipes pH 6.9, 100 mM KCl, 10 mM MgCl2); 25 °C; apparent Kd from steady-state fit, one-site model. Particulars: both partners purified.
Data set [4] concerns the molecule itself. Briefly: crystal structure; 0.34 mM Glp with 1.7 mM FtsZCTD peptide; 0.1 M NaCl, 0.1 M Bis-Tris pH 6.5, 1.5 M (NH4)2SO4; 2.7 Å.
Data set [5] concerns the target B2. Briefly: differential scanning fluorescence (thermofluor); Glp 3 μg in 25 mM HEPES pH 8, 150 mM NaCl, 5% glycerol with or without 1 mM FtsZCTD; Sypro Orange; 25 to 95 °C. The following applies: both partners purified.

In the case of Wag31, full length (natural protein), the Kd in data set [1] is 43.4 µM.
In the case of “Wag31_(1–61) (N-terminal DivIVA domain of Wag31) (domain or fragment)”, in data set [2], the Kd was 14.9 µM.
With B1, the Kd in data set [3] was determined as 0.0055 ± 0.00075 µM.
What is called stoichiometry N is the number of molecules, sites or subunits per partner or assembly. With B2, the Kd in the data set with His-SUMO-FtsZ was determined as 4.7 ± 0.77 µM. Also, the “stoichiometry N” value in data set [4] was determined as 2.
Consider B3, for which the “Tm shift of Glp” value in data set [5] was found to be 2 °C.

The values above are taken from paper PMC10522489, “Eukaryotic-like gephyrin and cognate membrane receptor coordinate corynebacterial cell division and polar elongation” (Nature Microbiology, 2023).
